B1: bivalent Fab No. 8 (HCVR SEQ ID NO: 5 / LCVR SEQ ID NO: 6) (Fab, V domains shown)
VH: QVQLVQSGAEVKKPGSSVKVSCKASGGTFSGYYISWVRQAPGQGLEWMGGIIPISGRANYAQKFQGRVTITADESTSTAYMELSSLRSEDTAVYYCARSRSYYHFDLWGQGTLVTVSS
VL: DIALTQPASVSGSPGQSITISCTGTSSDVGRYNSVSWYQQHPGKAPKLMIYRVSKRPSGVSNRFSGSKSGNTASLTISGLQAEDEADYYCQSWASLSNVVFGGGTKLTVLG
B2: bivalent Fab No. 6 (HCVR SEQ ID NO: 3 / LCVR SEQ ID NO: 4) (Fab, V domains shown)
VH: EVQLLESGGGLVQPGGSLRLSCAASGFTFRGYYMSWVRQAPGKGLEWVSSISGFSSNTYYADSVKGRFTISRDNSKNTLYLQMNSLRAEDTAVYYCARVRYLAYAFDYWGQGTLVTVSS
VL: DIELTQPPSVSVSPGQTASITCSGDSLPDKRAYWYQQKPGQAPVLVIYGDSHRPSGIPERFSGSNSGNTATLTISGTQAEDEADYYCSSWGSRTWVFGGGTKLTVLG

Target: Mycobacteria modified Low Density Lipoprotein (MtLDL) (human) (UniProt P04114)
Experiment: sandwich ELISA, value told of the pair No. 6 with No. 8

Row | Binder | specific signal, fold above native LDL background
1 | B1 | > 4 fold
2 | B2 | > 4 fold

Source: US20190391146A1
